{
  "source": "patent US20120283184A1",
  "about": "(published 2012)",
  "data": [
    {"target": "T1, human vascular endothelial growth factor receptor-2 Fc chimera (KDR-Fc) (human, UniProt P35968 20-764)", "T1 construct": "range 1-764; Purchased from R&D Systems; also called hKDR; human VEGF-R2-Fc; not shown: human IgG1 Fc", "T1 sequence (P35968 20-764 limits assumed, stated change not applied, form in doubt)": "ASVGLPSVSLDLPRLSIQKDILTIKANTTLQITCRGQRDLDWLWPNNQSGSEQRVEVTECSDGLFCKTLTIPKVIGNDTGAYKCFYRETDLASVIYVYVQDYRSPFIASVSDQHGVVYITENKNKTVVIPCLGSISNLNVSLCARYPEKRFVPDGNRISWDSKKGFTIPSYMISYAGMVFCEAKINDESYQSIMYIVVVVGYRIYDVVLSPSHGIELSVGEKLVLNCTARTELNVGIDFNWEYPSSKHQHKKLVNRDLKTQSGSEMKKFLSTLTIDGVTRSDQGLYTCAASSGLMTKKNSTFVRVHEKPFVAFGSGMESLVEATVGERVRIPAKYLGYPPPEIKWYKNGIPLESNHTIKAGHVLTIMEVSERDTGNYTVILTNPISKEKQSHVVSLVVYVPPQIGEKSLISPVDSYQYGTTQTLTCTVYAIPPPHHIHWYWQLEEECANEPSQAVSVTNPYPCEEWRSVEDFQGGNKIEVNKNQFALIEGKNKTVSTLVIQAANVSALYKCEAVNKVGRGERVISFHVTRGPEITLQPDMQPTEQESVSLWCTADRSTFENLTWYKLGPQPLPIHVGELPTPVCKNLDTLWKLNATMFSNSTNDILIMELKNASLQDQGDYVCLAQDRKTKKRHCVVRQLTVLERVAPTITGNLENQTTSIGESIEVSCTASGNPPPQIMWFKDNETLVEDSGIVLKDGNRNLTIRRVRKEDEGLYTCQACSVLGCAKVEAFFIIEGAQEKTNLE", "assay": "radioactive equilibrium binding, 1 nM KDR-Fc", "protocol": "(§1) To prepare ³⁵S-labeled binding proteins for analysis, mRNA was prepared as described above for RNA-protein fusion production but the linker ligation step was omitted. The mRNA was expressed using rabbit reticulocyte lysate translation kit (Ambion) in the presence of ³⁵S-labeled Met at 30° C. for 1 hour. Expressed protein was purified on M2-agarose Flag beads (Sigma) as described above. This procedure produced the encoded protein without the nucleic acid tail. In a direct binding assay, VEGF-R2-Fc fusions in concentrations ranging from 0 to 200 nM were added to a constant concentration of the purified protein (0.2 or 0.5 nM) and incubated at 30° C. for 1 hour in buffer B. The receptor-binder complexes were captured using Protein A magnetic beads for another 10 minutes at room temperature using a Kingfisher™ The beads were washed with six reaction volumes of buffer B. The protein was eluted from the beads with 100 μL of 0.1 M KOH. 50 μL of the reaction mixture and elution were dried onto a LumaPlate-96 (Packard) and the amount of ³⁵S on the plate was measured using a TopCount NXT instrument (Packard). The amount of fibronectin-based scaffold protein bound to the target was estimated as a percent of radioactivity eluted from Protein A magnetic beads compare to radioactivity in the reaction mixture. Nonspecific binding of fibronectin-based scaffold proteins to the beads was determined by measuring binding in the absence of KDR-Fc and represented less than 1-2% of the input. Specific binding was obtained through subtraction of nonspecific binding from total binding. Data was analyzed using the GraphPad Prizm software (GraphPad Software, Inc, San Diego, Calif.), fitted using a one site, non-linear binding equation.", "units": {"Binding to 1 nM KDR, %": "%"}, "values": [
      {"binder": "2′A1-PR4 (designed binder, in vitro translated) VSDVPRDLEVVAATPTSLLISWRHPHFPTRYYRITYGETGGNSPVQEFTVPLQPPTATISGLKPGVDYTITVYAVTSGHNDHMLMIPISINYRT", "Binding to 1 nM KDR, %": 11},
      {"binder": "2′G11-PR4 (designed binder, in vitro translated) VSDVPRDLEVVAATPTSLLISWRHPHFPTRYYRITYGETGGNSPVQEFTVPLQPPTATISGLKPGVDYTITVYAVTGGQMNRVLMTPISINYRT", "Binding to 1 nM KDR, %": 12},
      {"binder": "2H10 PR3 (designed binder, in vitro translated) VSDVPRDLEVVAATPTSLLISWRHPHFPTRYYRITYGETGGNSPVQEFTVPLQPPTATISGLKPGVDYTITVYAVTLAPSARELMTPISINYRT", "Binding to 1 nM KDR, %": 10},
      {"binder": "2H12 PR3 (designed binder, in vitro translated) VSDVPRDLEVVAATPTSLLISWRHPHFPTRYYRITYGETGGNSPVQEFTVPLQPPTATISGLKPGVDYTITVYAVTEGYQNHELSVPISINYRT", "Binding to 1 nM KDR, %": 10},
      {"binder": "2′D5-PR4 (designed binder, in vitro translated) VSDVPRDLEVVAATPTSLLISWRHPHFPTRYYRITYGETGGNSPVQEFTVPLQPPTATISGLKPGVDYTITVYAVTVAWNDHMLMTPISINYRT", "Binding to 1 nM KDR, %": 11},
      {"binder": "3H9 PR3 (designed binder, in vitro translated) EVVAATPTSLLISWRHPHFPTRYYRITYGETGGNSPVQEFTVPLQPPTATISGLKPGVDYTITVYAVTVSQQNHELLTPISINYRT", "Binding to 1 nM KDR, %": 11},
      {"binder": "3D4 PR3 (designed binder, in vitro translated) EVVAATPTSLLISWRHPHFPTRYYRITYGETGGNSPVQEFTVPLQPPTATISGLKPGVDYTITVYAVTVGWNDHELITPISINYRT", "Binding to 1 nM KDR, %": 10},
      {"binder": "3E6 PR3 (designed binder, in vitro translated) EVVAATPTSLLISWRHPHFPTRYYRITYGETGGNSPVQEFTVPLQPPTATISGLKPGVDYTITVYAVTVPQNGHELITMISINYRT", "Binding to 1 nM KDR, %": 12},
      {"binder": "3A8 PR3 (designed binder, in vitro translated) EVVAATPTSLLISWRHPHFPTRYYRITYGETGGNSPVQEFTVPLQPPTATISGLKPGVDYTITVYAVTEAHHGHELMIPISINYRT", "Binding to 1 nM KDR, %": 12},
      {"binder": "3F11 PR3 (designed binder, in vitro translated) EVVAATPTSLLISWRHPHFPTRYYRITYGETGGNSPVQEFTVPLQPPTATISGLKPGVDYTITVYAVTVGLTDHVLLTPISINYRT", "Binding to 1 nM KDR, %": 10},
      {"binder": "3′E8 PR4 (designed binder, in vitro translated) EVVAATPTSLLISWRHPHFPTRYYRITYGETGGNSPVQEFTVPLQPPTATISGLKPGVDYTITVYAVTVAQNDRQLFTPISINYRT", "Binding to 1 nM KDR, %": 12},
      {"binder": "3G10 PR3 (designed binder, in vitro translated) EVVAATPTSLLISWRHPHFPTRYYRITYGETGGNSPVQEFTVPLQPPTATISGLKPGVDYTITVYAVTVVHNGHEILTPISINYRT", "Binding to 1 nM KDR, %": 10},
      {"binder": "3F4 PR3 (designed binder, in vitro translated) EVVAATPTSLLISWRHPHFPTRYYRITYGETGGNSPVQEFTVPLQPPTATISGLKPGVDYTITVYAVTMGYEDHELITPISINYRT", "Binding to 1 nM KDR, %": 10},
      {"binder": "4′B6 PR4 (designed binder, in vitro translated) EVVAATPTSLLISWRHPHFPTRYYRITYGETGGNSPVQEFTVPLQPPTATISGLKPGVDYTITVYAVTLAQNDHELITPISINYRT", "Binding to 1 nM KDR, %": 11},
      {"binder": "2′DelB11 PR4 (designed binder, in vitro translated) EVVAATPTSLLISWRHPHFPTRYYRITYGETGGNSPVQEFTVPLQPPTATISGLKPGVDYTITVYAVTVGQNDHELMTPISINYRT", "Binding to 1 nM KDR, %": 11},
      {"binder": "3F5 PR3 (designed binder, in vitro translated) EVVAATPTSLLISWRHPHFPTRYYRITYGETGGNSPVQEFTVPLQPPTATISGLKPGVDYTITVYAVTVAYNEHELYTPISINYRT", "Binding to 1 nM KDR, %": 11},
      {"binder": "3′E4 PR4 (designed binder, in vitro translated) EVVAATPTSLLISWRHPHFPTRYYRITYGETGGNSPVQEFTVPLQPPTATISGLKPGVDYTITVYAVTVGPNDRELIVPISINYRT", "Binding to 1 nM KDR, %": 12},
      {"binder": "3C5 PR3 (designed binder, in vitro translated) EVVAATPTSLLISWRHPHFPTRYYRITYGETGGNSPVQEFTVPLQPPTATISGLKPGVDYTITVYAVTGDHNDRELMTPISINYRT", "Binding to 1 nM KDR, %": 12},
      {"binder": "2′DelB9 PR4 (designed binder, in vitro translated) EVVAATPTSLLISWRHPHFPTRYYRITYGETGGNSPVQEFTVPLQPPTATISGLKPGVDYTITVYAVTVGPTDHELLTPISINYRT", "Binding to 1 nM KDR, %": 11},
      {"binder": "4′G8 PR4 (designed binder, in vitro translated) EVVAATPTSLLISWRHPHFPTRYYRITYGETGGNSPVQEFTVPLQPPTATISGLKPGVDYTITVYAVTVAQNGHELLTPISINYRT", "Binding to 1 nM KDR, %": 13},
      {"binder": "2′DelB10 PR4 (designed binder, in vitro translated) EVVAATPTSLLISWRHPHFPTRYYRITYGETGGNSPVQEFTVPLQPPTATISGLKPGVDYTITVYAVTVTHNDHELLTPISINYRT", "Binding to 1 nM KDR, %": 11},
      {"binder": "4C4 PR3 (designed binder, in vitro translated) EVVAATPTSLLISWRHPHFPTRYYRITYGETGGNSPVQEFTVPLQPPTATISGLKPGVDYTITVYAVTVAQDDHELFTPISINYRT", "Binding to 1 nM KDR, %": 10},
      {"binder": "4A4 PR3 (designed binder, in vitro translated) EVVAATPTSLLISWRHPHFPTRYYRITYGETGGNSPVQEFTVPLQPPTATISGLKPGVDYTITVYAVTVAQNDHELFTPISINYRT", "Binding to 1 nM KDR, %": 10},
      {"binder": "3D11 PR3 (designed binder, in vitro translated) EVVAATPTSLLISWRHPHFPTRYYRITYGETGGNSPVQEFTVPLQPPTATISGLKPGVDYTITVYAVTLGQENQELITPISINYRT", "Binding to 1 nM KDR, %": 10},
      {"binder": "3′D4 PR4 (designed binder, in vitro translated) EVVAATPTSLLISWRHPHFPTRYYRITYGETGGNSPVQEFTVPLQPPTATISGLKPGVDYTITVYAVTLAHNDRELITPISINYRT", "Binding to 1 nM KDR, %": 12}
    ]},
    {"target": "T2, Flk-1-Fc (mouse vascular endothelial growth factor receptor-2 Fc chimera) (mouse, UniProt P35918 20-762)", "T2 construct": "Bought from R&D Systems; also called mouse VEGFR-2-Fc; Fc part of the bought chimera not given", "assay": "radioactive equilibrium binding assay, % bound at 1 nM Flk-1-Fc", "protocol": "as §1", "units": {"Binding to 1 nM Flk-1, %": "%"}, "values": [
      {"binder": "B12 (designed binder, 10Fn3 clone, Del 1-8) EVVAATPTSLLISWRHPHFPTRYYRITYGETGGNSPVQEFTVPLQPPTATISGLKPGVDYTITGYAVTVERNGRELRTPISINYRT", "Binding to 1 nM Flk-1, %": 21},
      {"binder": "G1 (designed binder, 10Fn3 clone, Del 1-8) EVVAATPTSLLISWRHPHFPTRYYRITYGETGGNSPVQEFTVPLQPPTATISGLKPGVDYTITGYAVTEGRNGRELMVPISINYRT", "Binding to 1 nM Flk-1, %": 2},
      {"binder": "B11 (designed binder, 10Fn3 clone, Del 1-8) EVVAATPTSLLISWRHPHFPTRYYRITYGETGGNSPVQEFTVPLQPPTATISGLKPGVDYTITGYAVTVERNGRELKTPISINYRT", "Binding to 1 nM Flk-1, %": 21},
      {"binder": "F12 (designed binder, 10Fn3 clone, Del 1-8) EVVAATPTSLLISWRHPHFPTRYYRITYGETGGNSPVQEFTVPLQPPTATISGLKPGVDYTITGYAVTDGRNGHELMTPISINYRT", "Binding to 1 nM Flk-1, %": 1}
    ]},
    {"target": "T3, Flk-1-Fc (mouse vascular endothelial growth factor receptor-2 Fc chimera) (mouse, UniProt P35918 20-762)", "T3 construct": "Purchased from R&D Systems; also called mouse VEGF-R2-Fc; not shown: Fc part of the purchased chimera", "assay": "method not given", "units": {"Kd": "nM"}, "values": [
      {"binder": "159Q(8)L (designed binder, also called clone 159) VSDVPRDLEVVAATPTSLLISWRHPHFPTRYYRITYGETGGNSPVQEFTVPLQPPAATISGLKPGVDYTITGYAVTMAQSGHELFTPISINYRT", "Kd": "> 3000"}
    ]},
    {"target": "Flk-1-Fc (mouse vascular endothelial growth factor receptor-2 Fc chimera) (mouse) (UniProt P35918)", "sequence (P35918 20-762, change not shown)": "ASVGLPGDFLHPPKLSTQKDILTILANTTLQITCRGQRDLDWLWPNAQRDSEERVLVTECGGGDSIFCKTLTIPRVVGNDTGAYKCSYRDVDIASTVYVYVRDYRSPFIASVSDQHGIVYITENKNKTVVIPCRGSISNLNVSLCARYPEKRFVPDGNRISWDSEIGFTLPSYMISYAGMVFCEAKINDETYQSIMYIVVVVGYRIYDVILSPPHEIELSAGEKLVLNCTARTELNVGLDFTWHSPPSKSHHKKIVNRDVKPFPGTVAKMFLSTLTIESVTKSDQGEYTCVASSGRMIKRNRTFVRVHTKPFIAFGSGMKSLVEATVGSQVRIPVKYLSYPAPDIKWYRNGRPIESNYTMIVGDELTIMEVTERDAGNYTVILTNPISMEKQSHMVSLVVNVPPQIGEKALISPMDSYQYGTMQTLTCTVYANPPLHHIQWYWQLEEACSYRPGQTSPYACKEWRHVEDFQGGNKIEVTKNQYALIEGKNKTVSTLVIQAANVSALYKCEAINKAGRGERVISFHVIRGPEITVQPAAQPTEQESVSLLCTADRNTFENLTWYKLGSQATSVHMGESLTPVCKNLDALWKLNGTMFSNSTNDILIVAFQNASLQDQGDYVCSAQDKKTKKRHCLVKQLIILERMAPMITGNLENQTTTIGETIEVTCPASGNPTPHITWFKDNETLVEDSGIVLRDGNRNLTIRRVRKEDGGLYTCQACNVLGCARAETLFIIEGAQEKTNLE", "assay": "radioactive equilibrium binding assay, % bound at 1 nM Flk-1-Fc", "units": {"Binding to 1 nM Flk-1, %": "%"}, "values": [
      {"binder": "EGE11 (SEQ ID NO: 87) (designed binder) EVVAATPTSLLISWRHPHFPTRYYRITYGETGGNSPVQEFTVPLQPPTATISGLKPGVDYTITGYAVTMGKNDRELLTPISINYRT", "Binding to 1 nM Flk-1, %": 1}
    ]}
  ]
}
